Results published in patent US20190071513A1 (APTEVO RESEARCH AND DEVELOPMENT, published 2019).
Read-outs that look alike come from different tables or passages of the source.

Key:
[1] = target: T1, CD3ε on Jurkat cells and human T-cells (human, UniProt P07766 23-207); assay: flow cytometry on CD3ε(+) Jurkat cells, PE anti-human Fc secondary
T1 construct: whole, on cells; on cells CD3ε stands in the TCR/CD3 complex; also called CD3 epsilon; CD3ε(+) Jurkat cell line
Description: Flow cytometry was used to quantitate binding of constructed molecules to the CD3ε expressing Jurkat cell line. Binding studies on the CD3ε(+) Jurkat cell line were performed by standard flow cytometry-based staining procedures. […] Signal from bound molecules was detected using a LSR-II™ flow cytometer (BD Biosciences) and analyzed by FlowJo flow cytometry analysis software. Mean fluorescence intensity (MFI) of bound molecules on cells was determined after exclusion of doublets.

[2] = target: T2, human CD123 ectodomain with Avi-3xFLAG-His affinity tag (TRI032) (human); assay: SPR (Biacore T200), bispecific captured by anti-Fc, monomeric CD123 ECD as analyte, 25 C, 1:1 model
T2 construct: also called CD123 ECD; recombinant monomeric CD123 ectodomain (ECD)
T2 chain: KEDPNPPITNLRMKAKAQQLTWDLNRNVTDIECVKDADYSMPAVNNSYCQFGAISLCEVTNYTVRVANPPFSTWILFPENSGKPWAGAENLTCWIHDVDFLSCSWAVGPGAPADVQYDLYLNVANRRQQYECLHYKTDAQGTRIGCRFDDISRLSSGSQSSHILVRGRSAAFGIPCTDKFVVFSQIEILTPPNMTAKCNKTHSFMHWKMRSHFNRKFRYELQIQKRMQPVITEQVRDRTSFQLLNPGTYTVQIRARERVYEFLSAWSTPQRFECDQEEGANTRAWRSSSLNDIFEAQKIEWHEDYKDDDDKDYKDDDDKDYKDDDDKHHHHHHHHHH
Description: SPR binding studies of bispecific molecules to recombinant monomeric CD123 ectodomain (ECD) were conducted at 25° C. in HBS-EP+ buffer. […] The bispecific molecules at 200 nM in HBS-EP+ buffer were captured by the immobilized anti-Fc F(ab′)2 fragment at a flow rate of 30 μL/min for 120 sec to reach a stable 2000 RU response. […] Optimal regeneration was achieved by one injection of 10 mM glycine (pH 1.7) at a flow rate of 30 μL/min for 15 sec followed by one injection of 50 mM NaOH at 30 μL/min for 15 sec. A two minute stabilization with HBS-EP+ buffer was completed before the subsequent run.
Sensorgrams obtained from kinetic SPR measurements were analyzed by the double subtraction method. The signal from the reference flow cell was subtracted from the analyte binding response obtained from flow cells with immobilized or captured ligands. Buffer reference responses were then averaged from multiple injections. […] All sensorgrams were fitted using a simple one-to-one binding model.

[3] = target: T3, human CD123 on the surface of CD123(+) cell lines (human, UniProt P26951 19-378); assay: flow cytometry on CD123(+) Molm-13 cells, PE anti-human IgG Fc secondary antibody, MFI; table under the graph
T3 construct: whole, on cells; endogenous protein of tumor cell lines; also called interleukin-3 receptor alpha chain; IL3RA
Description: (§1) The Molm-13 cell line was obtained from DSMZ (Braunschweig, Germany). The Molm-13 cell line was cultured according to the provided protocols. Chinese hamster ovary (CHO) cells stably expressing the full length cynomolgus CD123 protein were developed in-house. […] Signal from bound molecules was detected using a LSR-II™ flow cytometer (BD Biosciences) and analyzed by FlowJo flow cytometry analysis software. Mean fluorescence intensity (MFI) of bound molecules on cells was determined after exclusion of doublets. Nonlinear regression analysis to determine EC50 values was performed in GraphPad Prism 7® graphing and statistics software.

[4] = target: T3, human CD123 on the surface of CD123(+) …; assay: as above; remark: listed apart in the source
Description: as §1

[5] = target: T4, Full-length cynomolgus CD123, isoform 1 (TRI114), on transfected cells (cynomolgus monkey); assay: flow cytometry on CHO cells stably expressing cynomolgus CD123, PE anti-human IgG Fc secondary antibody, MFI; table under the graph
T4 construct: also called cyno CD123; CHO cells stably expressing cynomolgus CD123 protein
T4 chain: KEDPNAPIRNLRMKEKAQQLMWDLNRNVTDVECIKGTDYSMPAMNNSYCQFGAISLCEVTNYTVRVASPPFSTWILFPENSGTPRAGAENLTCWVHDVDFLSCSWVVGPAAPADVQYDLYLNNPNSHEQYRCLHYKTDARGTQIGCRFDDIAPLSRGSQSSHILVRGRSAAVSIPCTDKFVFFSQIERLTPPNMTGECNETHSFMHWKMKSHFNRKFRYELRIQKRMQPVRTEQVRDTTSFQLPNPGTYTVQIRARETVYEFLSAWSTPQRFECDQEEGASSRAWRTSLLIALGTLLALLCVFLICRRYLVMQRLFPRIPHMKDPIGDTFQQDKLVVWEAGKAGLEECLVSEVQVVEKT
Description: as §1

[6] = target: human CD123 on the surface of CD123(+) cell lines (human) (UniProt P26951); assay: cell-based or functional assay
[7] = target: human CD123 on the surface of CD123(+) cell lines (human) (UniProt P26951); assay: flow cytometry competition on Molm-13 cells; competitor PE-conjugated 7G3 at 13 nM
[8] = target: human CD123 on the surface of CD123(+) cell lines (human) (UniProt P26951); assay: flow cytometry competition on Molm-13 cells: preincubation with unlabeled 7G3, then PE-conjugated 7G3 at 13 nM as the competitor that is read
[9] = target: T3, human CD123 on the surface of CD123(+) …; assay: cell-based or functional assay

T3 sequence (P26951 19-378 limits assumed, form in doubt): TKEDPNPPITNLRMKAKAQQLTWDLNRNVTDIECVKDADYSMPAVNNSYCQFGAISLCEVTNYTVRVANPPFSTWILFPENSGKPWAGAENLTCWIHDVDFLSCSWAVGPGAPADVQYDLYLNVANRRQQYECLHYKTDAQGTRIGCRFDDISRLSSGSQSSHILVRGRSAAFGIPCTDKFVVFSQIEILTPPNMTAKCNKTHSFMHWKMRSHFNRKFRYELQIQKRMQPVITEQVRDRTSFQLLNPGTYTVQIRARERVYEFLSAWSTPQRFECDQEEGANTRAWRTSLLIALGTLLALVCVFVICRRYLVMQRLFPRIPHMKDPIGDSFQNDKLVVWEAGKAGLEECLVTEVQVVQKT
human CD123 on the surface of CD123(+) cell lines (human), sequence (P26951 19-378 limits assumed, form in doubt): as above
T1 sequence (P07766 23-207): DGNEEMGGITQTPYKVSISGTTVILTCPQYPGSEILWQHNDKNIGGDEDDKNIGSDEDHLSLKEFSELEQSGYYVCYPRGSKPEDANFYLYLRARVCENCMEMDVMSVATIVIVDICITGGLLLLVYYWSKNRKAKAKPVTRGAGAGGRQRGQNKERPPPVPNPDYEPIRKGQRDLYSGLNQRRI

B1: TSC266 (bispecific antibody)
chain: DIQMTQSPSAMSASVGDRVTITCRASKSISKYLAWFQQKPGKVPKLRIHSGSTLQSGVPSRFSGSGSGTEFTLTISSLQPEDFATYYCQQHIEYPWTFGQGTKVEIKRGGGGSGGGGSGGGGSQVQLVQSGAEVKKPGASVKVSCKASGYTFTDYYMHWVRQAPGQGLEWMGYFNPYNDYTRYAQKFQGRVTMTRDTSISTAYMELSSLRSDDTAVYYCARSDGYYDAMDYWGQGTTVTVSSSEPKSSDKTHTCPPCPAPEAAGAPSVFLFPPKPKDTLMISRTPEVTCVVVDVSHEDPEVKFNWYVDGVEVHNAKTKPREEQYNSTYRVVSVLTVLHQDWLNGKAYACAVSNKALPAPIEKTISKAKGQPREPQVYTLPPSRDELTKNQVSLTCLVKGFYPSDIAVEWESNGQPENNYKTTPPVLDSDGSFFLYSKLTVDKSRWQQGNVFSCSVMHEALHNHYTQKSLSLSPGQRHNNSSLNTGTQMAGHSPNSQVQLVESGGGVVQPGRSLRLSCKASGYTFTRSTMHWVRQAPGQGLEWIGYINPSSAYTNYNQKFKDRFTISADKSKSTAFLQMDSLRPEDTGVYFCARPQVHYDYNGFPYWGQGTPVTVSSGGGGSGGGGSGGGGSAQDIQMTQSPSSLSASVGDRVTMTCSASSSVSYMNWYQQKPGKAPKRWIYDSSKLASGVPARFSGSGSGTDYTLTISSLQPEDFATYYCQQWSRNPPTFGGGTKLQITSSS
notes: anti-PSMA scFv - Fc - anti-CD3 scFv (CRIS-7 derived) at the C-terminus; also called anti-PSMA×CRIS-7 scFv-Fc-scFv
For B1, the EC50 [1] was 2 nM and the “fold reduction of binding against DRA240” value [1] was ~10 fold.

B2: TRI129 (bispecific antibody)
chain: EVQLLESGGGLVQPGGSLRLSCAASGFTFSSYGMSWVRQAPGKGLEGVSAISGSGGSTYYADSVKGRFTISRDNSKNTLYLQMNSLRAEDTAVYYCAKEKLRYFDWLSDAFDIWGQGTMVTVSSGGGGSGGGGSGGGGSGGGGSDIVMTQSPDSLAVSLGERATINCKSSHSVLYSSNNKNYLAWYQQKPGQPPKLLIYWASTRESGVPDRFSGSGSGTDFTLTISSLQAEDVAVYYCQQYYSTPPTTFGGGTKVEIKSSSEPKSSDKTHTCPPCPAPEAAGAPSVFLFPPKPKDTLMISRTPEVTCVVVDVSHEDPEVKFNWYVDGVEVHNAKTKPREEQYNSTYRVVSVLTVLHQDWLNGKEYKCAVSNKALPAPIEKTISKAKGQPREPQVYTLPPSRDELTKNQVSLTCLVKGFYPSDIAVEWESNGQPENNYKTTPPVLDSDGSFFLYSKLTVDKSRWQQGNVFSCSVMHEALHNHYTQKSLSLSPGSGGGGSGGGGSGGGGSPSQVQLVQSGPEVKKPGSSVKVSCKASGYTFSRSTMHWVRQAPGQGLEWIGYINPSSAYTNYNQKFKDRVTITADKSTSTAYMELSSLRSEDTAVYYCARPQVHYDYNGFPYWGQGTLVTVSSGGGGSGGGGSGGGGSGGGGSDIQMTQSPSTLSASVGDRVTMTCSASSSVSYMNWYQQKPGKAPKRWIYDSSKLASGVPSRFSGSGSGTDYTLTISSLQPDDFATYYCQQWSRNPPTFGGGTKVEIKRS
notes: scFv-Fc-scFv, anti-CD123 × anti-CD3ε; dimer; also called OMT1 VHVL × TSC456 scFv-Fc-scFv
B2 was tested, and the Kd [2] was 11.4 nM, the koff [2] was 0.00205 s⁻¹ and the kon [2] was 179000 M⁻¹ s⁻¹. The EC50 [3] was 5.33 nM, the EC50 [4] was 9.69 nM and the EC50 [5] was 8.77 nM.

B3: anti-human CD123 monoclonal antibody 7G3 (antibody, from another filing, V domains shown)
VH: EVQLQQSGPELVKPGASVKMSCKASGYTFTDYYMKWVKQSHGKSLEWIGDIIPSNGATFYNQKFKGKATLTVDRSSSTAYMHLNSLTSEDSAVYYCTRSHLLRASWFAYWGQGTLVTVSA
VL: DFVMTQSPSSLTVTAGEKVTMSCKSSQSLLNSGNQKNYLTWYLQKPGQPPKLLIYWASTRESGVPDRFTGSGSGTDFTLTISSVQAEDLAVYYCQNDYSYPYTFGGGTKLEIKR
For B3, the IL-3 induced proliferation of TF-1 cells (CyQUANT), 4 days [6] was 100%, the percent inhibition of binding of PE-conjugated 7G3 [7] was 100% and the IC50 (read off the curve) [8] was 2 nM.

B4: TRI168 (bispecific antibody)
chain 1: QAVVTQEPSLTVSPGGTVTLTCRSSTGAVTTSNYANWVQQKPGQAPRGLIGGTNKRAPWTPARFSGSLLGGKAALTITGAQAEDEADYYCALWYSNLWVFGGGTKLTVLGGGGSGGGGEVQLVQSGAELKKPGASVKVSCKASGYTFTDYYMKWVRQAPGQGLEWIGDIIPSNGATFYNQKFKGRVTITVDKSTSTAYMELSSLRSEDTAVYYCARSHLLRASWFAYWGQGTLVTVSSGGCGGGEVAALEKEVAALEKEVAALEKEVAALEK
chain 2: DFVMTQSPDSLAVSLGERVTMSCKSSQSLLNSGNQKNYLTWYQQKPGQPPKLLIYWASTRESGVPDRFSGSGSGTDFTLTISSLQAEDVAVYYCQNDYSYPYTFGQGTKLEIKGGGSGGGGEVQLVESGGGLVQPGGSLRLSCAASGFTFSTYAMNWVRQAPGKGLEWVGRIRSKYNNYATYYADSVKDRFTISRDDSKNSLYLQMNSLKTEDTAVYYCVRHGNFGNSYVSWFAYWGQGTLVTVSSGGCGGGKVAALKEKVAALKEKVAALKEKVAALKESSSLNDIFEAQKIEWHEDYKDDDDKDYKDDDDKDYKDDDDKHHHHHHHHHH
B4 was tested, and the “EC50 of T-cell activation (CD4+ and CD8+ CD25+ CD69+) with Molm-13 cells, 24 hours” value [9] was < 0.01 nM and the “EC50 of T-cell proliferation (CFSE) with Molm-13 cells, 4 days” value [9] was 0.002 to 0.005 nM.
